Tests used:
[1] = molecular target: T1, human low-density lipoprotein receptor related protein 5 (LRP5) (human, UniProt O75197 32-1615); test: cell binding to HEK 293 cells stably overexpressing human LRP5, time resolved fluorescence of europium label
T1 construct: whole, on cells; also called human LRP5

[2] = molecular target: T1, human low-density lipoprotein receptor …; test: competition with rhDkk-1-GFP fusion protein for binding to LRP5 on HEK 293 cells, fluorescence imaging (INCell 3000)
Method: The rhDkk-1-GFP fusion protein-LRP5 binding assays were as follows. Recombinant HEK-293 cells stably overexpressing human LRP5 were plated into the wells of a 384-well tissue culture plate (Corning) at a concentration of about 6,000 cells/well. Each well contained 45 μL of phenol red-free DMEM containing 2.5% FBS. To each well, an analyte was added to give a final concentration of 15 μM. A minute later, 5 μL of conditioned medium containing rhDkk-1-GFP and 10 μM DRAQ5 nuclear stain is added to each well and the wells incubated at 37 °C for 25 minutes. Imaging and evaluation of rhDkk-1-GFP fusion protein binding to the recombinant cells overexpressing LRP5 was determined using an INCell 3000 imager (Amersham, Piscataway, N.J.).

[3] = molecular target: T1, human low-density lipoprotein receptor …; test: competition with Eu-rhDkk-1 for binding to human LRP5 on HEK 293 cells, time resolved fluorescence
Method: The rhDkk-1-LRP5 binding assays were carried out as follows. The recombinant HEK 293 cells stably overexpressing human LRP5 were plated into the wells of white/white, 384-well, PDL plates (BD Biosciences, San Jose, Calif.). Each well contained about 10,000 cells and 30 μL of medium containing 2.5% FBS. The next day, to each well, 250 nL of an analyte was added (high concentration copy, CyBi Disk) for final a concentration of about 30 μM. Next, 5 μL of Eu-rhDkk-1 (1 nM) was added to each of the wells (CyBi Well, 0.1 nM final concentration). After incubating at 37° C. for 30 minutes, the wells were washed four times each with a wash solution (Tris-buffered saline, pH 8.0) containing 0.02% Tween-20). After the final wash, 20 μL of Enhancement Solution (Perkin Elmer) was added to each of the wells. After incubating the wells in Enhancement Solution for 30 minutes at room temperature, the wells were vortexed and the time resolved fluorescence from the wells read using the […], a CCD-based optical imaging instrument that can measure fluorescence (Amersham Biosciences, Piscataway, N.J.).

T1 sequence (O75197 32-1615): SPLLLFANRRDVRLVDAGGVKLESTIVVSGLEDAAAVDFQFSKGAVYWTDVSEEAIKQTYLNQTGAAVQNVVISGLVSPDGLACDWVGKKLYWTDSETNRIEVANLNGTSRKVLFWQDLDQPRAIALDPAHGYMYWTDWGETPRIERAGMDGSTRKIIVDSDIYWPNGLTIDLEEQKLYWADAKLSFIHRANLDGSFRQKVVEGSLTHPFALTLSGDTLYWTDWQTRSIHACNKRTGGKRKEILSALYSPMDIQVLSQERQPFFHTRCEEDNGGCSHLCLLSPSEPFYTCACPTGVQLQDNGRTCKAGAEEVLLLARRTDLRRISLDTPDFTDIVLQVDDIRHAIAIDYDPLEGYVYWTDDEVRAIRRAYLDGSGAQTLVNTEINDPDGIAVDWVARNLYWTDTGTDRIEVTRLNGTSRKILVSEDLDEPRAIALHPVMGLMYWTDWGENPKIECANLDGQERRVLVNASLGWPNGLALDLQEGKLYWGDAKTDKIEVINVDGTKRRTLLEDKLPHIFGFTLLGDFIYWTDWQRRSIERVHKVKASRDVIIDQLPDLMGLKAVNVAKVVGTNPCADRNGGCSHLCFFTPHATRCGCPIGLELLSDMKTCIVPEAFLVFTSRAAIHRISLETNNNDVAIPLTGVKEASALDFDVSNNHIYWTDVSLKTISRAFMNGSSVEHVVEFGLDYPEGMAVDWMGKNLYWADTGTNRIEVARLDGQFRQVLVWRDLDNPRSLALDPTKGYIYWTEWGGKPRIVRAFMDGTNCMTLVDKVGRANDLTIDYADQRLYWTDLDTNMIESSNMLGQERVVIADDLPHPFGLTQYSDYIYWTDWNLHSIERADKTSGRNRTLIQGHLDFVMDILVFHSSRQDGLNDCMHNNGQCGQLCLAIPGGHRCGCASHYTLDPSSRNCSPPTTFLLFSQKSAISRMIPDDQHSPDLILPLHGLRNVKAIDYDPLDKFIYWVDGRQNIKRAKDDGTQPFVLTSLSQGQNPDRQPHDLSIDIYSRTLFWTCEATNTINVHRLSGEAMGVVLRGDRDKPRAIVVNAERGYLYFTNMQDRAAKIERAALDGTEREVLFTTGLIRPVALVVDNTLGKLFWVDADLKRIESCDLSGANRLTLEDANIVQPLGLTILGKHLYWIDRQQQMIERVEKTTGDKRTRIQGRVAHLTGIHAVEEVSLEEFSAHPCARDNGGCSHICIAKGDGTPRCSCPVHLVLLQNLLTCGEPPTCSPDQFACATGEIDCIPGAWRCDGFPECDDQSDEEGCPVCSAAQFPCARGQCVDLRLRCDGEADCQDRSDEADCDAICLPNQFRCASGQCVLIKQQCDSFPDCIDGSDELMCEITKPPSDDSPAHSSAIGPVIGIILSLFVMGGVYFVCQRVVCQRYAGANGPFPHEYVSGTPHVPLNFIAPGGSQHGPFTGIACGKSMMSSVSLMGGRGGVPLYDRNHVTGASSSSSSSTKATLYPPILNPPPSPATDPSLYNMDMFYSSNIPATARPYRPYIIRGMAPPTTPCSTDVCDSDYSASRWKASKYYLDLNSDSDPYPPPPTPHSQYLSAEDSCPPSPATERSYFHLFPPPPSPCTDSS

Binder	Kd [1] [nM]	IC50 [2] [nM]	IC50 [3] [nM]
rhDkk-1 comprising a polyhistidine sequence at the carboxy terminus, labeled with europium chelate N1-isothiocyanate (Eu-rhDkk-1) (ligand, not shown: small tags and cut ends, labeled with europium chelate N1-isothiocyanate, about 9 Eu molecules per protein (sites not given), Produced in baculovirus-infected insect cells and purified on a nickel column; also called labeled RhDkk-1 protein; polyhistidine-tagged RhDkk-1) TLNSVLNSNAIKNLPPPLGGAAGHPGSAVSAAPGILYPGGNKYQTIDNYQPYPCAEDEECGTDEYCASPTRGGDAGVQICLACRKRRKRCMRHAMCCPGNYCKNGICVSSDQNNFRGEIEETITESFGNDHSTLDGYSRRTTLSSKMYHSKGQEGSVCLRSSDCATGLCCARHFWSKICKPVLKEGQVCTKHRRKGSHGLEIFQRCYCGEGLSCRIQKDHHQASNSSRLHTCQRH	~1		
rhesus monkey dickkopf-1 (rhDkk-1), unlabeled competitor (ligand) TLNSVLNSNAIKNLPPPLGGAAGHPGSAVSAAPGILYPGGNKYQTIDNYQPYPCAEDEECGTDEYCASPTRGGDAGVQICLACRKRRKRCMRHAMCCPGNYCKNGICVSSDQNNFRGEIEETITESFGNDHSTLDGYSRRTTLSSKMYHSKGQEGSVCLRSSDCATGLCCARHFWSKICKPVLKEGQVCTKHRRKGSHGLEIFQRCYCGEGLSCRIQKDHHQASNSSRLHTCQRH		~1	~0.2
